This is an account of results in EP4671269A1 (Akeso Biopharma Co., Ltd., dated 2025).

Experiment [1] has as its target T1, human TIGIT-mFc (human; mouse, UniProt Q495A1 22-141, limits assumed).
T1 construct: not shown: Fc protein fragment of mouse IgG
T1 sequence (looked up): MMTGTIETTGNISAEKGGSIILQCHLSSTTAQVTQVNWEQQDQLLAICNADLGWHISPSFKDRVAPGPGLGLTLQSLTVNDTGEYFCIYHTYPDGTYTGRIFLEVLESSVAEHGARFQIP
In words: competitive ELISA vs CD155-hFc-Biotin, TIGIT-mFc coated. On the technique in general: In an ELISA, binding on a coated surface is turned into a signal by an enzyme label.

Experiment [2] addresses T2, TIGIT on the cell membrane (293T-TIGIT, Jurkat-TIGIT-NFAT-Luc cells) (human, UniProt Q495A1 22-244).
T2 construct: whole, on cells; also called cell membrane surface antigen TIGIT
T2 sequence (looked up): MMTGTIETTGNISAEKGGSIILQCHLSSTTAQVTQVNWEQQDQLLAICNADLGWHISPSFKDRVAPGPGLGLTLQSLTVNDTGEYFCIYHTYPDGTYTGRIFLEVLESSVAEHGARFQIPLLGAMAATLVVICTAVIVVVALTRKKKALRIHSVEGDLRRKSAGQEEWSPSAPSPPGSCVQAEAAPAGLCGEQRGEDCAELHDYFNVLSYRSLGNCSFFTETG
In words: FACS, 293T-TIGIT cells. (In general: A flow cytometer gives signals particle by particle.)

Experiment [3] addresses T1, human TIGIT-mFc. In words: indirect ELISA, TIGIT-mFc captured on plate.
For experiment [4], the target named is T2, TIGIT on the cell membrane (293T-TIGIT, …). In words: competitive FACS vs CD155-mFc, 293T-TIGIT cells.
Experiment [5] shares this target. In words: competitive FACS vs CD112-mFc, 293T-TIGIT cells.
Experiment [6] concerns the target T3, TGF-β1 (human, UniProt P01137 279-390).
T3 construct: also called human TGF-β1; TGF-β1 protein
In words: indirect ELISA, TGF-β1 coated.

Experiment [7] has as its target T3, TGF-β1. In words: indirect ELISA, TGF-β1 coated. The source holds these as a separate data set.
Experiment [8] addresses T3, TGF-β1. In words: competitive ELISA vs TGF-βRII-His-Biotin, TGF-β1 coated.
For experiment [9], the target named is T4, human TIGIT-hFc (human, UniProt Q495A1 22-141, limits assumed).
T4 construct: Screening antigen of the hybridoma ELISA; not shown: Fc protein fragment of human IgG
T4 sequence (looked up): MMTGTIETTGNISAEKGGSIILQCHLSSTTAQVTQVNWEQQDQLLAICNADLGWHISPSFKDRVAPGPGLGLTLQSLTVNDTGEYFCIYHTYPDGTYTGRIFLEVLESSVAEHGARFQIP
In words: indirect ELISA, hybridoma screening.

B1: 26B12H2L2(hG4DM) (antibody, human IgG4 S228P, kappa, F234A L235A)
heavy: not shown
light: DIQMTQSPSSLSASVGDRVTITCRSSQHVSTALAWYQQKPGKSPKLLIYSASSRYSGVPDRFSGSGSGTDFTFTISSLQPEDFATYYCQQHYITPWTFGGGTKLEIKRTVAAPSVFIFPPSDEQLKSGTASVVCLLNNFYPREAKVQWKVDNALQSGNSQESVTEQDSKDSTYSLSSTLTLSKADYEKHKVYACEVTHQGLSSPVTKSFNRGEC
notes: Humanized anti-TIGIT antibody, IgG4 with F234A and L235A (EU numbering)
In the case of B1, the EC50 (usually the midpoint of the concentration-response curve) in [1] stood at 1.42 nM.

B2: RG6058(hG4) (antibody, V domains shown)
VH: EVQLQQSGPGLVKPSQTLSLTCAISGDSVSSNSAAWNWIRQSPSRGLEWLGKTYYRFKWYSDYAVSVKGRITINPDTSKNQFSLQLNSVTPEDTAVFYCTRESTTYDLLAGPFDYWGQGTLVTVSS
VL: not shown
notes: Positive control anti-TIGIT antibody from CN108290946A; also called RG6058(hG4WT)
Consider B2, for which the EC50 in experiment [1] is 1.68 nM; in experiment [2] it was 1.61 nM; in [3] it was 0.055 nM.

B3: Tiragolumab (antibody, human IgG1, kappa, V domains shown)
VH: EVQLQQSGPGLVKPSQTLSLTCAISGDSVSSNSAAWNWIRQSPSRGLEWLGKTYYRFKWYSDYAVSVKGRITINPDTSKNQFSLQLNSVTPEDTAVFYCTRESTTYDLLAGPFDYWGQGTLVTVSS
VL: not shown
notes: Positive control anti-TIGIT antibody; also called RG6058(hG1WT)
Turning to B3, the EC50 in [4] was 1.28 nM; in [5], 0.837 nM.

B4: TGF-βRII-mFc (Fc fusion, UniProt P37173 24-159, looked up)
chain: IPPHVQKSVNNDMIVTDNNGAVKFPQLCKFCDVRFSTCDNQKSCMSNCSITSICEKPQEVCVAVWRKNDENITLETVCHDPKLPYHDFILEDAASPKCIMKEKKKPGETFFMCSCSSDECNDNIIFSEEYNTSNPD
notes: also called TGF-βR2-mFc; not shown: Fc protein fragment of mouse IgG
With B4, the EC50 in experiment [6] stood at 0.356 nM; in experiment [7], 0.271 nM; in experiment [8], 6.47 nM.

B5: 26B12 (antibody, V domains shown)
VH: EVQLQESGPGLVKPSQSLSLTCTVTGHSFTSDYAWNWIRQFPGNRLEWMGYISYSDSTNYNPSLKSRISITRDTSKNQFFLQMNSVTTEDTATYYCARLDYGNYGGAMDYWGQGTSVTVSS
VL: DIVLTQSHEFMSTSLRDRVSITCKSSQHVSTAVAWYQQKPGQSPKLLIYSASYRYTGVPDRFTGSGSGTDFTFTISSVKAEDLAVYYCQQHYITPWTFGGGTKLEIK
notes: Murine hybridoma antibody; also called anti-TIGIT antibody 26B12; monoclonal antibody secreted by hybridoma cell line LT019
B5: the binding result in experiment [9] was “binds”.
